Experimental data reported in the supplement of paper PMC7877785.
± gives the uncertainty stated by the source.

Test: self-splicing fitness, log relative to wild type (ln ratio); higher = more splicing; Tetrahymena group I intron in knt gene, E. coli kanamycin selection, DiMSum; sequences stand for … in CUCUCU…GGAGGGAAAAGUUAUCAGGCAUGCACCUGGUAGCUAGUCUUUAAACCAAUAGAUUGCAUCGGUUUAAAAGGCAAGACCGUCAAAUUGCGGGAAAGGGGUCAACAGCCGUUCAGUACCAAGUCUCAGGGGAAACUUUGAGAUGGCCUUGCAAAGGGUAUGGUAAUAAGCUGACGGACAUGGUCCUAACCACGCAGCCAAGUCCUAAGUCAACAGAUCUUCUGUUGAUAUGGAUGCAGUUCACAGACUAAAUGUCGGUCGGGGAAGAUGUAUUCUUCUCAUAAGAUAUAGUCGGACCUCUCCUUAAUGGGAGCUAGCGGAUGAAGUGAUGCAACACUGGAGCCGCUGGGAACUAAUUUGUAUGCGAAAGUAUAUUGAUUAGUUUUGGAGUACUCGUGGUCG
In short: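 Library with all eight P1ex-region intron nucleotides randomised, intron inside the knt kanamycin-resistance gene on pET-22b(+), in E. coli BL21(DE3). Cells grew overnight at 37°C or 30°C on LB agar with or without 25 μg/mL kanamycin (plus 100 μg/mL carbenicillin, 50 μM IPTG, 0.2% rhamnose), in six replicate transformations. Pooled colonies were amplicon-sequenced on Illumina HiSeq 2500. DiMSum fitness is the error-weighted combination of wild-type-normalised replicate fold changes, kanamycin versus none.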

Row | Sequence | self-splicing fitness (ln) (30 °C) | self-splicing fitness (ln) (37 °C)
1 | GCUGAGCAAUAUUACGACGG | -1.27 ± 0.17 | -0.245 ± 0.27
2 | GGCCAGCAAUAUUACGAGGC | -2.66 ± 0.23 | -2.94 ± 0.4
3 | AGGGAGCAAUAUUACGGUGU | -4.33 ± 0.22 | -2.37 ± 0.18
4 | CUAUAGCAAUAUUACGGCUC | -3.46 ± 0.36 | -2.47 ± 0.48
5 | CCGAAGCAAUAUUACGUGGU | -4.68 ± 0.29 | -2.24 ± 0.2
6 | ACGUAGCAAUAUUACGAAGU | -2.97 ± 0.2 | -2.86 ± 0.21
7 | GUUAAGCAAUAUUACGUAAG | -0.147 ± 0.098 | -0.0396 ± 0.13
8 | UAACAGCAAUAUUACGAGCA | -1.22 ± 0.1 | -0.317 ± 0.1
9 | ACCUAGCAAUAUUACGCGAG | -3.54 ± 0.15 | -1.55 ± 0.11
10 | UUGAAGCAAUAUUACGCACU | -0.156 ± 0.091 | 0.362 ± 0.1
11 | CACAAGCAAUAUUACGCAAA | -3.29 ± 0.23 | -2.46 ± 0.28
12 | UGCUAGCAAUAUUACGACGG | -0.768 ± 0.16 | -0.44 ± 0.18
13 | GGCAAGCAAUAUUACGGAAA | -1.55 ± 0.12 | -1.27 ± 0.13
14 | CACCAGCAAUAUUACGACCC | -3.82 ± 0.25 | -2.98 ± 0.28
15 | GUUAAGCAAUAUUACGGACU | -2.88 ± 0.2 | -1.8 ± 0.2
16 | CACCAGCAAUAUUACGUACC | -4.01 ± 0.43 | -1.84 ± 0.33
17 | AUAGAGCAAUAUUACGUCCG | -2.71 ± 0.23 | -3.65 ± 0.34
18 | CCUAAGCAAUAUUACGUAUC | -3.83 ± 0.32 | -2.33 ± 0.26
19 | CUACAGCAAUAUUACGUCAG | -1.55 ± 0.12 | -1.18 ± 0.13
20 | GGAAAGCAAUAUUACGCGUG | -0.941 ± 0.054 | -0.486 ± 0.071
21 | UCGGAGCAAUAUUACGUAAU |  | -1.86 ± 0.33
22 | CUUCAGCAAUAUUACGUGCG | -2.43 ± 0.09 | -0.814 ± 0.099
23 | GUGAAGCAAUAUUACGGAGC | -4.68 ± 0.46 | -1.38 ± 0.16
24 | CGUCAGCAAUAUUACGCUGU | -4.26 ± 0.33 | -1.51 ± 0.27
25 | GAUAAGCAAUAUUACGCGUC | -4.66 ± 0.36 | -2.53 ± 0.33

Row | Sequence | self-splicing fitness (ln) (30 °C) | self-splicing fitness (ln) (37 °C)
26 | CUCUAGCAAUAUUACGUGUC | -3.45 ± 0.21 | -3.91 ± 0.31
27 | AUAGAGCAAUAUUACGAUUA | -2.45 ± 0.21 | -0.158 ± 0.17
28 | CCCCAGCAAUAUUACGCUCG | -3.14 ± 0.17 | -2.1 ± 0.19
29 | UACCAGCAAUAUUACGAGAA | -1.72 ± 0.14 | -1.22 ± 0.13
30 | UGACAGCAAUAUUACGACAA | -0.197 ± 0.087 | 0.15 ± 0.1
31 | ACCUAGCAAUAUUACGAUGU | -0.605 ± 0.045 | 0.0835 ± 0.065
32 | GGAAAGCAAUAUUACGCGCG | -0.394 ± 0.08 | -0.275 ± 0.12
33 | GAGAAGCAAUAUUACGGGCU | -2.57 ± 0.14 | -1.16 ± 0.14
34 | AGCAAGCAAUAUUACGGAAG | -3.35 ± 0.25 | -2.32 ± 0.26
35 | GGAUAGCAAUAUUACGGCAA | -0.818 ± 0.19 | -0.178 ± 0.2
36 | GCGUAGCAAUAUUACGAUGG | -1.91 ± 0.17 | -2.82 ± 0.31
37 | AUAGAGCAAUAUUACGAUCC | -3.08 ± 0.33 | -2.18 ± 0.36
38 | UUCGAGCAAUAUUACGCGAC | -3.69 ± 0.32 | -1.18 ± 0.19
39 | UCCUAGCAAUAUUACGCAUU | -3.92 ± 0.21 | -1.81 ± 0.11
40 | ACCCAGCAAUAUUACGCUGU | -1.86 ± 0.075 | -0.908 ± 0.098
41 | CGCGAGCAAUAUUACGCAAU | -4.68 ± 0.36 | -2.83 ± 0.29
42 | AGGAAGCAAUAUUACGAUUG | -3.96 ± 0.36 | -3.3 ± 0.28
43 | AGACAGCAAUAUUACGAGAG | -4.6 ± 0.34 | -2.12 ± 0.17
44 | AAAAAGCAAUAUUACGGUUC | -2.7 ± 0.18 | -1.81 ± 0.21
45 | CGCAAGCAAUAUUACGCAUU | -4.11 ± 0.19 | -3.12 ± 0.21
46 | UCAAAGCAAUAUUACGGGCC | -3.12 ± 0.4 | 
47 | ACACAGCAAUAUUACGCCCU | -0.215 ± 0.072 | -0.0145 ± 0.077
48 | UAUAAGCAAUAUUACGGGGG | -3.88 ± 0.29 | -3.09 ± 0.24
49 | GGCCAGCAAUAUUACGAACG | -2.65 ± 0.41 | -0.764 ± 0.3
50 | GAACAGCAAUAUUACGUGCC | -2.58 ± 0.14 | -0.859 ± 0.12

Row | Sequence | self-splicing fitness (ln) (30 °C) | self-splicing fitness (ln) (37 °C)
51 | GGUUAGCAAUAUUACGAGAU |  | -1.66 ± 0.33
52 | UGACAGCAAUAUUACGGUAU | -3.58 ± 0.2 | -2.45 ± 0.21
53 | ACACAGCAAUAUUACGAAAU | -2.47 ± 0.13 | -1.87 ± 0.12
54 | ACCCAGCAAUAUUACGUAAC | -1.49 ± 0.065 | -1.17 ± 0.1
55 | UCUUAGCAAUAUUACGAUCU | -2.59 ± 0.29 | -2.04 ± 0.29
56 | GGACAGCAAUAUUACGCGAA | -1.07 ± 0.08 | -0.612 ± 0.094
57 | ACUCAGCAAUAUUACGGUCU | -0.745 ± 0.057 | 0.311 ± 0.079
58 | CCUAAGCAAUAUUACGUUAA | -3.22 ± 0.4 | -2.49 ± 0.22
59 | UUGGAGCAAUAUUACGCGGU | -2.83 ± 0.26 | -2.14 ± 0.38
60 | AUUAAGCAAUAUUACGCGUU | -1.78 ± 0.11 | -0.33 ± 0.12
61 | GGGUAGCAAUAUUACGGGAU | -3.17 ± 0.22 | -2.04 ± 0.23
62 | CUAAAGCAAUAUUACGUAUG | -0.125 ± 0.059 | 0.0627 ± 0.081
63 | UCUGAGCAAUAUUACGGUAC | -3.24 ± 0.47 | 
64 | AUCCAGCAAUAUUACGAACU | -1.98 ± 0.15 | -0.753 ± 0.18
65 | AGCUAGCAAUAUUACGCACU | -1.19 ± 0.1 | -0.466 ± 0.13
66 | UUCAAGCAAUAUUACGUUUA | -1.49 ± 0.087 | -0.461 ± 0.082
67 | UGCCAGCAAUAUUACGUCGU | -2.68 ± 0.14 | -1.9 ± 0.15
68 | AUCUAGCAAUAUUACGAUAU | -1.15 ± 0.076 | -0.605 ± 0.1
69 | CUUUAGCAAUAUUACGGAAA |  | -2.01 ± 0.27
70 | CGUGAGCAAUAUUACGGACC | -2.51 ± 0.49 | 
71 | ACUUAGCAAUAUUACGUACA | -1.84 ± 0.17 | -0.763 ± 0.15
72 | CGUCAGCAAUAUUACGGAAA | -2.57 ± 0.3 | -2.38 ± 0.37
73 | AGUGAGCAAUAUUACGAGUC | -4.15 ± 0.47 | -1.93 ± 0.18
74 | UGACAGCAAUAUUACGCAAG | -3.51 ± 0.27 | -2.73 ± 0.21
75 | AUCCAGCAAUAUUACGUGAA | -0.631 ± 0.049 | -0.212 ± 0.072

Row | Sequence | self-splicing fitness (ln) (30 °C) | self-splicing fitness (ln) (37 °C)
76 | GACAAGCAAUAUUACGGAUA | -1.52 ± 0.12 | -1.47 ± 0.12
77 | GCACAGCAAUAUUACGGAUA | -2.49 ± 0.17 | -1.38 ± 0.12
78 | UGGUAGCAAUAUUACGGCAA | -1.14 ± 0.086 | 0.277 ± 0.1
79 | UGACAGCAAUAUUACGACCA | -0.143 ± 0.1 | 0.216 ± 0.15
80 | UUUGAGCAAUAUUACGCAAA | -2.8 ± 0.25 | -2.25 ± 0.21
81 | GCACAGCAAUAUUACGAUCC | -0.381 ± 0.11 | -0.0747 ± 0.16
82 | GCGGAGCAAUAUUACGUGCG | -3.79 ± 0.35 | -2.55 ± 0.27
83 | CAACAGCAAUAUUACGAGAC | -2.57 ± 0.11 | -2.22 ± 0.14
84 | GAUUAGCAAUAUUACGCACG | -1.36 ± 0.12 | -1.14 ± 0.14
85 | AUCUAGCAAUAUUACGGGCU | -2.22 ± 0.16 | -2.49 ± 0.23
86 | CAAGAGCAAUAUUACGGCUG | -0.309 ± 0.098 | -0.473 ± 0.16
87 | GGUCAGCAAUAUUACGGCGA | 0.307 ± 0.14 | 0.838 ± 0.14
88 | GUAUAGCAAUAUUACGGUUU | -0.844 ± 0.089 | -1.29 ± 0.16
89 | GAUUAGCAAUAUUACGUCGA | -1.83 ± 0.12 | -0.819 ± 0.11
90 | GCCCAGCAAUAUUACGCUAA | -0.87 ± 0.083 | -0.549 ± 0.09
91 | CAAAAGCAAUAUUACGGUUC | -3.56 ± 0.22 | -1.83 ± 0.18
92 | CGAAAGCAAUAUUACGACUA | -1.51 ± 0.14 | -0.539 ± 0.13
93 | CACAAGCAAUAUUACGAGAG | -3.2 ± 0.12 | -1.32 ± 0.085
94 | CUCAAGCAAUAUUACGGGCU | -4.09 ± 0.27 | -3 ± 0.26
95 | CUGCAGCAAUAUUACGAUCG | -0.0275 ± 0.073 | 0.558 ± 0.1
96 | GGUGAGCAAUAUUACGAUGA | -3.32 ± 0.29 | -2.29 ± 0.21
97 | GCCAAGCAAUAUUACGCUCA | -0.458 ± 0.093 | 0.0485 ± 0.12
